The target in one series is T1, TLR4-FLAG (UniProt O00206 24-839, limits assumed).
T1 construct: not shown: FLAG tag
Kind of series: Strep pull-down from HEK 293T cells co-expressing Strep-AmTARS and TLR4-FLAG, immunoblot. A general note: A western blot detects proteins with antibodies after separation by electrophoresis.

Series [1] addresses T2, mouse TLR2 on bone marrow-derived macrophages (BMDMs), Q9QUN7.
T2 chain: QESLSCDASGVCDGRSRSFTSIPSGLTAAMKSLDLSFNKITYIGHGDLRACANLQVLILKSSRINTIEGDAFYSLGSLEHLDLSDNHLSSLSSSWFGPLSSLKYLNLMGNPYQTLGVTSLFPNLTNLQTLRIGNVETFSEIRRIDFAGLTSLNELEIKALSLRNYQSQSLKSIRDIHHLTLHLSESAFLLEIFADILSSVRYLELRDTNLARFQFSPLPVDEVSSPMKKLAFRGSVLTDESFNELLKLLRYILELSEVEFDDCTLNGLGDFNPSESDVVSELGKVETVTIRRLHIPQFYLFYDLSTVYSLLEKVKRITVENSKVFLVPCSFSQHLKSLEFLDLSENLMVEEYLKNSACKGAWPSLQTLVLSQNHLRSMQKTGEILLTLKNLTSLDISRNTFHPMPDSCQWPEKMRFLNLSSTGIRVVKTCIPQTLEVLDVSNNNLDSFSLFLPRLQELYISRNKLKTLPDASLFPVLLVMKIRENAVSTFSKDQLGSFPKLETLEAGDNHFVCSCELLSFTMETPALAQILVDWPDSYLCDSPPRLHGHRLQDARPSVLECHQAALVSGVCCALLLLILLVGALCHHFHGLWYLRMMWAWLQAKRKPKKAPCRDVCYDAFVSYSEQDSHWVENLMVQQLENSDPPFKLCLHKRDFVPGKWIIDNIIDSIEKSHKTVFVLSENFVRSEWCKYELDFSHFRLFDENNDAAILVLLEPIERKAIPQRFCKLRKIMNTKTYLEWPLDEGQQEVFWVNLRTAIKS

The next series relates to BMDMs from TLR2-KO mouse. Briefly: IL-10 production in BMDMs from TLR2 knock-out mice. The format is cell-based. The text has this: The TLR2-dependent immune function of AmTARS was further corroborated using TLR2 knock-out (KO) mice. […] However, IL-10 production by […] (U1/U2) was abolished in BMDMs from TLR2-KO mice, providing further evidence that AmTARS regulates host immune cells via its unique regions in a TLR2-dependent manner (FIG. 28D).

For series [2], the system named is mouse bone marrow-derived macrophages (BMDMs). Briefly: ELISA of immune cytokine secretion in BMDMs under normal conditions. It counts as cell-based. Conditions: normal (non-inflammatory) conditions, 24 h. On the procedure:
Specifically, mouse bone marrow-derived macrophages (BMDMs) as mouse-derived immune cells were extracted from the mouse thighbone and shinbone, and then cultured in DMEM containing 10% fetal bovine serum (FBS) and antibiotics. Human macrophages (THP1) as human-derived immune cells were cultured in RPMI media containing 10% FBS and antibiotics.
The cultured cells were treated with AmTARS at 0.1 μM, 0.2 μM, and 0.5 μM for 24 h to obtain cell cultures. For cell removal, the media were centrifuged at 500×g for 10 min to obtain supernatants, which were then analyzed using an ELISA set (mouse interleukin (IL)-6, mouse IL-10, mouse tumor necrosis factor (TNF)-α, human IL-6, human IL-10, human TNF-α; BD Biosciences) to investigate the secretion of mouse- and human-derived immune cytokines. […]

T1 sequence (O00206 24-839 limits assumed): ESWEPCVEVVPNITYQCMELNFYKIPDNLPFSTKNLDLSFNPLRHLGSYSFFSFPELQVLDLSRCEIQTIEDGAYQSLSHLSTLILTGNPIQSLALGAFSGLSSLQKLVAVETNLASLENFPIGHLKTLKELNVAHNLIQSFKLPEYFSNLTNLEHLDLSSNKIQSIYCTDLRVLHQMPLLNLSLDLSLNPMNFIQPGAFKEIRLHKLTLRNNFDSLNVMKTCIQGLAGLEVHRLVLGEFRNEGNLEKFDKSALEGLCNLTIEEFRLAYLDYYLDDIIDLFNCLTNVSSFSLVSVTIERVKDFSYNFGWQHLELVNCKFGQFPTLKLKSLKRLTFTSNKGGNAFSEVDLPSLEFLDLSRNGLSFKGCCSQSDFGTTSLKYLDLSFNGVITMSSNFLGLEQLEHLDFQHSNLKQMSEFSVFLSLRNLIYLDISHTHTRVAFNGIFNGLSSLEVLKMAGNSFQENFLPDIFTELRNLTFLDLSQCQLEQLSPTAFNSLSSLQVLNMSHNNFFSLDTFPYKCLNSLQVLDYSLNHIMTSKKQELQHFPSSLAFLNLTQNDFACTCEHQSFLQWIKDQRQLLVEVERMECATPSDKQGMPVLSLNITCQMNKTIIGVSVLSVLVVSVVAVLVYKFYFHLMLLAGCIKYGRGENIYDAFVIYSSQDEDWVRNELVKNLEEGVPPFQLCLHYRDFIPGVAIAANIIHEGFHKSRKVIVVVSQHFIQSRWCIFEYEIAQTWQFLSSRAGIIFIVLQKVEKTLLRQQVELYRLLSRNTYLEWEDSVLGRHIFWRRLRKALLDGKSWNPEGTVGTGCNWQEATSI
Text for TLR4-FLAG: Data shown are representative of three independent experiments, each with similar results.

B1: Strep-tagged Akkermansia muciniphila threonyl-tRNA synthetase (Strep-AmTARS) (enzyme)
chain: MSEHKERKTLEERQQMSDLERLRHSCAHVLATAICRLWPDAQLAGGPAVDNGFYYDVELDHRISTEDFERIEEEMKKVVKENQVFQKEVISRADAMKMAESGELGALGPRSEPSRFKIDLLNDIPEDEEISLYRNGDFTDLCAGPHVGRTGNCKAFKIMSVASAFYKGDKNRPMLQRIYGTCFPNRTQLDEHLERLEEARRRDHRKLGRELGLFCIDESVGQGLILWKPKGALIRRSLQDFITEELDKLGYSQVYTPNIGKLDLYRTSGHFPYYQESQYAPIPERDAMEKLSQEGASCAELFNGLATGTIEGYMLKPMNCPHHIKIYANDAHSYRDLPVRLAEFGTVYRWEQSGELGGMTRVRGFTQDDAHIFCTPDQLAGEIRQCLGIVKTIFGTLGMTDYRVRLSMRDPESDKYVGSPENWDKAEQALREAAEWLGADYSEEAGEAAFYGPKIDFIVRDAIGREWQLGTVQVDYNLPERFDLHYTGADNKPHRPVMVHRAPFGSMERFTGLLIEHFEGKFPTWLSPEQVRVLPISDKVTDVAAAHRTALAARGVRVTVDETPDKIGAKIRNARLDRVPYMLVLGQREAEDGTVSVRHRDKGDLGAMPFEQFADLVAREIAERHISPVI
notes: The tag is put N-terminal from the name 'Strep-AmTARS'; not shown: 2 x Strep tag from vector pEXPR-IBA105
As to B1, the binding result with TLR4-FLAG is listed as “no binding”. Also, in series [1], the “activation of PI3K and AKT, and phosphorylation of GSK3β at Ser9 (western blot) in BMDMs” value was “AmTARS activated PI3K and AKT, and subsequently inhibited GSK3β activity via AKT-mediated phosphorylation at Ser9, in BMDMs”.

B2: EcTARS (U1/U2): Engineered EcTARS incorporating the AmTARS U1 and U2 regions, SEQ ID NO: 18 (protein)
chain: MPVITLPDGSQRHYDHAVSPMDVALDIGPGLAKACIAGRVNGELVDACDLIENDAQLSIITAKDEEGLEIIRHSCAHLLGHAIKQLWPHTKMAIGPVIDNGFYYDVDLDRTLTQEDVEALEKRMHELAEKNYDVIKKKVSWHEARETFANRGAESGELGALGPRSEPESYKVSILDENIAHDDKPGLYFHEEYVDMCRGPHVPNMRFCHHFKLMKTAGAYWRGDSNNKMLQRIYGTAWADKKALNAYLQRLEEAAKRDHRKIGKQLDLYHMQEEAPGMVFWHNDGWTIFRELEVFVRSKLKEYQYQEVKGPFMMDRVLWEKTGHWDNYKDAMFTTSSEKLSQEGASCAELFNGLATGTIEGNREYCIKPMNCPGHVQIFNQGLKSYRDLPLRMAEFGSCHRNEPSGSLHGLMRVRGFTQDDAHIFCTEEQIRDEVNGCIRLVYDMYSTFGFEKIVVKLSTRPEKRIGSDEMWDRAEADLAVALEENNIPFEYQLGEGAFYGPKIEFTLYDCLDRAWQCGTVQLDFSLPSRLSASYVGEDNERKVPVMIHRAILGSMERFIGILTEEFAGFFPTWLAPVQVVIMNITDSQSEYVNELTQKLSNAGIRVKADLRNEKIGFKIREHTLRRVPYMLVCGDKEVESGKVAVRTRRGKDLGSMDVNEVIEKLQQEIRSRSLKQLEE
modifications: EcTARS(U1/U2)
For B2, the IL-10 production result with BMDMs from TLR2-KO mouse is given as “abolished”. Also, the “secretion/production of IL-10” value in series [2] is “conferred the ability to trigger IL-10 production”.

(Values after patent US12636342B2, “TARS derived from Akkermansia muciniphila or fragment thereof, and use thereof” (KOREA RESEARCH INSTITUTE OF BIOSCIENCE AND BIOTECHNOLOGY, priority 2020, dated 2026).)
